Assay results: PMC5969521, “Actin-related proteins regulate the RSC chromatin remodeler by weakening intramolecular interactions of the Sth1 ATPase” (Communications Biology, 2018)
Each block holds one molecule with its values, some of them ahead of it.

Columns and labels:
Sth1(301-1097) [1] = target: T1, Sth1(301-1097) (budding yeast, UniProt P32597 301-1097); assay: EMSA; details: apparent Kd, Anisotropy: 20 mM HEPES pH 7.5, 50 mM NaCl, 2.5 mM MgCl2, 5% glycerol, 1 mM DTT, 0.1 mg/mL BSA, 1 mM AMPPNP or ADP, 50 nM DNA, 20 C, EMSA: 20 mM HEPES pH 7.5 …
T1 sequence (P32597 301-1097): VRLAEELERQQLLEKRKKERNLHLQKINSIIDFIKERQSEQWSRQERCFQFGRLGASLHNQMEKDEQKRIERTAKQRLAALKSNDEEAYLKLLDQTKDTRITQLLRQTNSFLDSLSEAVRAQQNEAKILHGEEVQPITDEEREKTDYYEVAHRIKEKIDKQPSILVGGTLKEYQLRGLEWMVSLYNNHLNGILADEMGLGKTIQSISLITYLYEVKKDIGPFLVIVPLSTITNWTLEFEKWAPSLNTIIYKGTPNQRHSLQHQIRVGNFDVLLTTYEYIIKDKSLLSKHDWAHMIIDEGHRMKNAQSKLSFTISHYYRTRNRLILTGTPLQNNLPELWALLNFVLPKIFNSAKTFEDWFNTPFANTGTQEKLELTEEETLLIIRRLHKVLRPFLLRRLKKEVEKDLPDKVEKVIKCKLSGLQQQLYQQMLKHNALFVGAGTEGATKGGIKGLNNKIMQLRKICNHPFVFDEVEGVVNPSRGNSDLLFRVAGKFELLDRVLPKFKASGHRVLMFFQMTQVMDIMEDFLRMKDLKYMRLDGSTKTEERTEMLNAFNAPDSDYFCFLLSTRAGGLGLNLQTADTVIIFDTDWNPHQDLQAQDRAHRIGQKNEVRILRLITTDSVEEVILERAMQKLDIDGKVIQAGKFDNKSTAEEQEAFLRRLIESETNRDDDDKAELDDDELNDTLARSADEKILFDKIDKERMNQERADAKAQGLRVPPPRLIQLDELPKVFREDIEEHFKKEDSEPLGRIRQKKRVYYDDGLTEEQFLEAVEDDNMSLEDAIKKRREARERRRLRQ

[2] = target: T2, Rtt102;Arp7;Arp9;Sth1(301-1097) (budding yeast;budding yeast;budding …, UniProt P53330;Q12406;Q05123;P32597 1-157;1-477;1-467;301-1097, |||); assay: EMSA; details: apparent Kd, Anisotropy: 20 mM HEPES pH 7.5, 50 mM NaCl, 2.5 mM MgCl2, 5% glycerol, 1 mM DTT, 0.1 mg/mL BSA, 1 mM AMPPNP or ADP, 50 nM DNA, 20 C, EMSA: 20 mM HEPES pH 7.5 …
Target sequence in this assay (P32597 301-1097, one chain of several): as the sequence (P32597 301-1097) above

[3] = target: Rtt102-Arp7/9-bound His-HSA–pHSA fragment (budding yeast) (UniProt P32597); assay: pull-down; TEV cleavage and co-purification assay: purified Sth1 constructs at 6 μM (±Arp7/9 and Rtt102) cut with TEV protease overnight, His-tagged N-terminal fragment held on Ni-NTA resin; 20 mM HEPES pH 7.5, 500 mM NaCl, 5% glycerol, 25 mM imidazole, 1 mM MgCl2, 0.1 mM AMPPNP; eluted with 250 mM imidazole; SDS-PAGE, Coomassie
[4] = target: T3, Rtt102-Arp7/9-Sth1_301–1097 (Saccharomyces cerevisiae, UniProt P32597); assay: phosphate release (MESG/purine nucleoside phosphorylase, […] nm); assay type: biochemical; details: 1 mM ATP, plasmid DNA, 2.5 mM MgCl2, pH 7.0, 22 °C; hydrolysis by the Sth1 subunit
T3 construct: gene STH1; quaternary complex; Sth1 residues 301-1097 (HSA, pHSA, ATPase domains), Ni-NTA purified; with Actin-related protein 7; Actin-like protein ARP9; Regulator of Ty1 transposition protein 102
T3 sequence (P32597 301-1097, one chain of several): as the sequence (P32597 301-1097) above

Rtt102-Arp7/9 = target: T4, Rtt102-Arp7/9 (Saccharomyces cerevisiae, UniProt Q12406); assay: X-ray crystallography ([…] Å); assay type: binding; details: pre-incubated with 1 mM ATP; ATP bound in nucleotide cleft of Arp7, not Arp9; no cation seen; not hydrolysed
T4 construct: heterotrimer reconstituted from Rtt102 and Arp7/9 (2:1 mix, gel filtration); Rtt102 157 aa; with Actin-like protein ARP9; Regulator of Ty1 transposition protein 102
T4 sequence (Q12406 1-477): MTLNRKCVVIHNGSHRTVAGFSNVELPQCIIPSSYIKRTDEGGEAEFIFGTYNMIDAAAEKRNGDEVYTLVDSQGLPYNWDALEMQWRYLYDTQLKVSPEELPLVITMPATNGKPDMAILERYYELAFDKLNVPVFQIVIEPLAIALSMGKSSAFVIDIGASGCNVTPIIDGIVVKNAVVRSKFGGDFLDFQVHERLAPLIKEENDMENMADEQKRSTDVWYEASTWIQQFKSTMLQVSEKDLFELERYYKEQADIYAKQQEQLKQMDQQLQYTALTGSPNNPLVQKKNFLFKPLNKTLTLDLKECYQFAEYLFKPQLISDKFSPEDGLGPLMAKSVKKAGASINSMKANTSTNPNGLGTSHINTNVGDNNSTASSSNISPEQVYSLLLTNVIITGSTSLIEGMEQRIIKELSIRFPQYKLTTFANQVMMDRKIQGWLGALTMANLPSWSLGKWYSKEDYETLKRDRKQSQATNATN
T4 sequence (Q05123 1-467 partner): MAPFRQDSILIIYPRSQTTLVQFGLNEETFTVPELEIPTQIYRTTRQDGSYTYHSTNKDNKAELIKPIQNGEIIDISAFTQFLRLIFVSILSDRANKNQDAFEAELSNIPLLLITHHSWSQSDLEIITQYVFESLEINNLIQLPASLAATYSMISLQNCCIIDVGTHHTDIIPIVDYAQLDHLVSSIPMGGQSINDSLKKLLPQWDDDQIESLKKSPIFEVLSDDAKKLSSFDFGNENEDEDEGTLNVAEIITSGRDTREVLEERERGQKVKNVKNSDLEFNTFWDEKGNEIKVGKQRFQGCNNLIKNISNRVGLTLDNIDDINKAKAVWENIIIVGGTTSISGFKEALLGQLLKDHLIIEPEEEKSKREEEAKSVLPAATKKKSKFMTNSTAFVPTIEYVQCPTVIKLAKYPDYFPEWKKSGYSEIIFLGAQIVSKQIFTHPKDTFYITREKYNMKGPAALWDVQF
T4 sequence (P53330 1-157 partner): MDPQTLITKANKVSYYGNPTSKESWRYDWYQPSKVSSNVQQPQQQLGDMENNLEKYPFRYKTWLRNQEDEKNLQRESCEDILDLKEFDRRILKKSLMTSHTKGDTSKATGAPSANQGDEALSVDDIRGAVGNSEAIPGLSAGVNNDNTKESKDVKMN

[5] = target: nucleosome (Xenopus laevis histone octamer on 601 nucleosomal DNA) (Xenopus laevis); assay: native gel or EMSA; native gel shift, 1 mM ADP; nucleosomes held constant, Sth1 constructs up to 10 μM; 20 mM HEPES pH 7.5, 50 mM NaCl, 5% glycerol, 1 mM DTT, 0.1 mg/mL BSA, 1 mM MgCl2; 30 min room temperature, gel at 4 °C; apparent KD from a single-site hyperbolic fit
[6] = target: nucleosome (Xenopus laevis histone octamer on 601 nucleosomal DNA) (Xenopus laevis); assay: native gel or EMSA; native gel shift, 1 mM AMPPNP; nucleosomes held constant, Sth1 constructs up to 10 μM; 20 mM HEPES pH 7.5, 50 mM NaCl, 5% glycerol, 1 mM DTT, 0.1 mg/mL BSA, 1 mM MgCl2; 30 min room temperature, gel at 4 °C; apparent KD from a single-site hyperbolic fit
[7] = target: Sth1(365-1097) P1swap (budding yeast; Rad54 segment from S. solfataricus) (UniProt P32597); assay: fluorescence anisotropy; details: nucleotide state not visible in material; Anisotropy: 20 mM HEPES pH 7.5, 50 mM NaCl, 2.5 mM MgCl2, 5% glycerol, 1 mM DTT, 0.1 mg/mL BSA, 1 mM AMPPNP or ADP, 50 nM DNA, 20 C; EMSA: 20 mM HEPES pH 7.5 …
Chain of Sth1(365-1097) P1swap (budding yeast; Rad54 segment from S. solfataricus) (P32597 whole entry): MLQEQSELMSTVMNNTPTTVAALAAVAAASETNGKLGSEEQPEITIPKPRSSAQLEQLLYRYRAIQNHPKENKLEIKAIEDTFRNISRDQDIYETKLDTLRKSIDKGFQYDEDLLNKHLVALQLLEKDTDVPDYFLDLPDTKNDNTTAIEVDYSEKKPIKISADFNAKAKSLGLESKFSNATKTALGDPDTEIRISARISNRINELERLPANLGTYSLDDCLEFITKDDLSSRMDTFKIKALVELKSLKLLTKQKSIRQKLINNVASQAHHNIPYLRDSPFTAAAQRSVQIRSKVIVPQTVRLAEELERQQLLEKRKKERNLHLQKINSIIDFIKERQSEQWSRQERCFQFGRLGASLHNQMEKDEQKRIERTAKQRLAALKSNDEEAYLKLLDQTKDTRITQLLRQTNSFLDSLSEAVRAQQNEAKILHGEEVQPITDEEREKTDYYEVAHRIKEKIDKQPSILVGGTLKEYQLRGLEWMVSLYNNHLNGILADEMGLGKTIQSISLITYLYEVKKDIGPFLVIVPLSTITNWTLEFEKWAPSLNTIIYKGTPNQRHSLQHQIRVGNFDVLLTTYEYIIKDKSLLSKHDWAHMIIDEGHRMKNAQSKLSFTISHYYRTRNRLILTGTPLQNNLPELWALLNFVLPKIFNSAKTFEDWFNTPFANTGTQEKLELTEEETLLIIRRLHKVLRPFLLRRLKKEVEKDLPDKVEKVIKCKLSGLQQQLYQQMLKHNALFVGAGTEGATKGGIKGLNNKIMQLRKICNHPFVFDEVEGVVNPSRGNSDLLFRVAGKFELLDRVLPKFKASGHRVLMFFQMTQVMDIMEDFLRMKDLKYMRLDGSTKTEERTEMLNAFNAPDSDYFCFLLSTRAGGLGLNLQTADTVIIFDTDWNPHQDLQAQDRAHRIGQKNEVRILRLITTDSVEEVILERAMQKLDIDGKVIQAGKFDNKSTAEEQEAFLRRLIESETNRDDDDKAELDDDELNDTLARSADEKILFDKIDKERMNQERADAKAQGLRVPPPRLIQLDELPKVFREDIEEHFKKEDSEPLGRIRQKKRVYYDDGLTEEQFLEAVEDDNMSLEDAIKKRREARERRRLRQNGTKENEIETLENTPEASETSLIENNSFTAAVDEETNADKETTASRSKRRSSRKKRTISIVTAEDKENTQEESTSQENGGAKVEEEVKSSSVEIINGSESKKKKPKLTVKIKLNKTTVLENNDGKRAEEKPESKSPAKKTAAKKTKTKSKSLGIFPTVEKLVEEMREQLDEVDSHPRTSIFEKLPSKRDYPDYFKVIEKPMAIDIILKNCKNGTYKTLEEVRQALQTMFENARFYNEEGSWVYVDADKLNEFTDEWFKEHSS

Arp7;Arp9;Sth1(301-1097) = Arp7;Arp9;Sth1(301-1097) (budding yeast;budding yeast;budding …, UniProt Q12406;Q05123;P32597 1-477;1-467;301-1097, ||); assay: fluorescence anisotropy; 1 mM AMPPNP; Anisotropy: 20 mM HEPES pH 7.5, 50 mM NaCl, 2.5 mM MgCl2, 5% glycerol, 1 mM DTT, 0.1 mg/mL BSA, 1 mM AMPPNP or ADP, 50 nM DNA, 20 C; EMSA: 20 mM HEPES pH 7.5, 50 mM NaCl, 1 mM MgCl2, 5% glycerol, 1 mM DTT, 0.1 mg/mL BSA, 1 mM ADP or AMPPNP, room temperature; details: protein: recombinant;recombinant;recombinant; copies: 1;1;1; label: 5'-fluorescein; strands 21 and 22 nt: 21 bp with 1 nt 5' overhang (T) on strand 2
Chain of Arp7;Arp9;Sth1(301-1097) (P32597 301-1097, chain 3 of 3, one chain of several): as the sequence (P32597 301-1097) above

Sth1(301-1097) [8] = target: T1, Sth1(301-1097); assay: as above; details: protein: recombinant; label: 5'-fluorescein; strands 21 and 22 nt: 21 bp with 1 nt 5' overhang (T) on strand 2
[9] = target: T2, Rtt102;Arp7;Arp9;Sth1(301-1097); assay: as above; details: protein: recombinant;recombinant;recombinant;recombinant; copies: 1;1;1;1; label: 5'-fluorescein; strands 21 and 22 nt: 21 bp with 1 nt 5' overhang (T) on strand 2
Target sequence in this assay (P32597 301-1097, chain 4 of 4, one chain of several): as the sequence (P32597 301-1097) above

Sth1(365-1097) = Sth1(365-1097) (budding yeast, UniProt P32597 365-1097); assay: fluorescence anisotropy; nucleotide state not visible in material; Anisotropy: 20 mM HEPES pH 7.5, 50 mM NaCl, 2.5 mM MgCl2, 5% glycerol, 1 mM DTT, 0.1 mg/mL BSA, 1 mM AMPPNP or ADP, 50 nM DNA, 20 C; EMSA: 20 mM HEPES pH 7.5, 50 mM NaCl, 1 mM MgCl2, 5% glycerol, 1 mM DTT, 0.1 mg/mL BSA, 1 mM ADP or AMPPNP, room temperature; details: protein: recombinant; label: 5'-fluorescein; strands 21 and 22 nt: 21 bp with 1 nt 5' overhang (T) on strand 2
Chain of Sth1(365-1097) (P32597 365-1097): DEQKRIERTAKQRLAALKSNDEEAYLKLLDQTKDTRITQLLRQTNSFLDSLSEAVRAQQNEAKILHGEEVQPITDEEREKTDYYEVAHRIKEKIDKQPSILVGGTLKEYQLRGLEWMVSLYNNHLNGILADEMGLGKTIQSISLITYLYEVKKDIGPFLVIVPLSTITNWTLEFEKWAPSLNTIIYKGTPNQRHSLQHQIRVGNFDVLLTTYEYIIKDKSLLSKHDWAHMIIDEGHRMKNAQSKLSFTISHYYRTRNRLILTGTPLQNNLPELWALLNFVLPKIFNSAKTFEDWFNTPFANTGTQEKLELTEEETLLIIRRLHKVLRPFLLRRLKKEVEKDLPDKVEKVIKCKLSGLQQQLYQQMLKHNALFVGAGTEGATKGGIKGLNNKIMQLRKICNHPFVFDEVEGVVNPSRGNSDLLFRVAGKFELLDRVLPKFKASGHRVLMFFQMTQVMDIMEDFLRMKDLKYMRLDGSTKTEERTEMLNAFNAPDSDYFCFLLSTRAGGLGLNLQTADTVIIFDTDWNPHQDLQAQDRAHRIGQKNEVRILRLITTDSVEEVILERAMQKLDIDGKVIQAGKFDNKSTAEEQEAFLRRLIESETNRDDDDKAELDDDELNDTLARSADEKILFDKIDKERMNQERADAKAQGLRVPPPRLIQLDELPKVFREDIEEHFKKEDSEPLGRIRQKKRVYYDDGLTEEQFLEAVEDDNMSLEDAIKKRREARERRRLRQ

Molecule: 601 nucleosome (Xenopus laevis core histone octamer)
Kd (Sth1(301-1097) [1]; 1 mM ADP): 670 nM | Kd (Sth1(301-1097) [1]; 1 mM AMPPNP): 670 nM | Kd ([2]; 1 mM ADP): 510 nM | Kd ([2]; 1 mM AMPPNP): 460 nM

percent of the ATPase lost after passage through the Ni-NTA column [3]: 45%
Molecule: untagged ATPase fragment of TEV-cleaved Sth1_(301–1097) or Sth1_(365–1097) (from UniProt P32597 432-1097) (domain or fragment)

Molecule: Nc1ncnc2c1ncn2[C@@H]1O[C@H](COP(=O)(O)OP(=O)(O)OP(=O)(O)O)[C@@H](O)[C@H]1O [ATP]
phosphate release (MESG/purine nucleoside phosphorylase, 360 nm) [4]: displays strong DNA-dependent ATPase activity catalyzed by subunit Sth1 | X-ray crystallography (3.25 Å) (Rtt102-Arp7/9): showed the presence of ATP in the nucleotide-binding cleft of Arp7 but not Arp9

Kd [5]: 510 nM | Kd [6]: 460 nM
Molecule: Rtt102-Arp7/9-Sth1_(301–1097) quaternary complex (from UniProt P32597 301-1097; Q12406 1-477; Q05123 1-467; P53330 1-157)

Molecule: TCCATGTCCATGGATACGTGG / TCCACGTATCCATGGACATGGA [fluorescein DNA duplex]
Kd [7]: 520 nM

Kd [5]: 670 nM | Kd [6]: 670 nM
Molecule: Sth1_(301–1097) (from UniProt P32597 301-1097) (domain or fragment)

B1: fluorescein DNA duplex (dsDNA)
DNA 1: TCCATGTCCATGGATACGTGG
DNA 2: TCCACGTATCCATGGACATGGA
Kd (Arp7;Arp9;Sth1(301-1097)): 3000 nM | Kd (Sth1(301-1097) [8]): 280 nM | Kd [9]: 4200 nM | Kd (Sth1(365-1097)): 700 ± 10 nM
